The values below come from the DeepSol protein solubility set.

This data set is described as follows: soluble on expression in E. coli; label from the status in PepcDB or PDB records.
“MGSDKIHHHHHHMVVASVVLWGKHVGAVLWNYDKGYATFEFEAGFLKSGLDVAPLTMPLANVSKGEIFQFAQLPKETFHGLPGLLSDALPDRFGNQLIDLWLASQGRDKASMSPVERLCYLGTRGMGALEFEPTVRNEKEPSKGLEIGALVELSKKALSMKASLDSHFSKEDAETFADIIKVGTSAGGARAKAVIAYNEQTGEVRSGQLHSPAGFEHWLIKFDGVTNEQLGDPKGYGRIEYAYYKMAIDADIIMMPSLLLEEGGRAHFMTKRFDRIVNNEKLHMQTLCGLCHFDYNNPEAYAYEQAFQAMRQLRLPYTDAEQLYIRMVFNVVARNQDDHTKNISFLMDKTGNWSLSPAYDVSYAYNPENKWIAKHQLAVNGKRENIMREDLLSVAKQMNIKKPKEIIEKITAVVSNWEGYAQEAGVPKNQITALGKTHLLKM”: the “soluble on expression in E. coli” value was “not soluble”.
Next, “MSFLEKLVAKYEPIKEEKPKLVPKPTRKRQPETTEIVVKTRRITRRNAKAPVKEEEIGHQKAQITIVDDEEFMEQPVQEPIEIEEEQQEESHLEIALPEQPNHEPMQSSPSLPRKSFKPDMHPIAKKGGKICIVDLGLTSHTLPTEQTPGFLKRLGENVGGSIDYSYESIDELIRTAPDAWSKASMGAIRGVMLMQELVTERSMHPKSKPMEKNRLLGEEMAKLNPNDFLNHKLLEVSSLDQTVFINVNLVFSALSIQHGSVRSIVNAMSNHWIDYLIPREQQGSFTTSKKTEPLTFFPGDLTNWPAALLAAAIKLDNDQVDVTRLPSVVNMLFKHHIKVRFDHARGLYRTKHDGQNPPKIVLPKRPIIDCTQFYKSSEDIDEEQVPSTSNFQSSSNSLSTSKSAGREHIPDSP”: “not soluble”; “AHHHHHHGSFFLKTKIIEGRGSLEYLQKEAIGFERALILASSSMKRLGFLKEAEDYLREGGVEVISIAGLPPEPTKDVVDEFLPKVREFSPEILIAIGGGSVIDMAKALKVFYDVPGISFEEVAIKSRFSKPRPVPKLKTPLIAIPSTSGAGSEVSAASVIKVGDVKYTIVTPEIAPEVAILDPRLPEGMPPEVARNSGMDVLVHAIEAYVSKASSPFTDAMAVKAAKAVLEHLEESIRGDKNAREKIHYAATMAGIAFLNARLGLVHAMSHKAAWIGPHGLVNAILLPYVMEYNMARRREKYDALARELGFDNAEELLEEIKALNERLGIGPISSYVSEEEFLAKLDEMVERAYEDPLVNFNPVEPRKEDIRRIYERAFYGD”: “soluble”; “MTESVARLRGEQLTLGYGKYTVAENLTVEIPDGHFTAIIGPNGCGKSTLLRTLSRLMTPAHGHVWLDGEHIQHYASKEVARRIGLLAQNATTLGDITVQELVARGRYPHQPLFTRWRKEDEEAVTKAMQATGITHLADQSVDTLSGGQRQRAWIAMVLAQETAIMLLDEPTTWLDISHQIDLLELLSELNREKGYTLAAVLHDLNQACRYASHLIALREGKIVAQGAPKEIVTAELIERIYGLRCMIIDDPVAGTPLVVPLGRTAPSTANS”: “not soluble”.
With “MGSDKIHHHHHHMETQTRKHSEQKHNSFNNSLEVWKLCFSYPDFVFVSCFNNSLEVWKPGKTLTYDSATNGFNNSLEVWKHSSEALFKAEFRRFNNSLEVWKHHRARRRTLLLPGFNNSLEVWKLIDFKYDSSHYSGFNNSLEVWKPFVLELPDACDCTCFNNSLEVWKPHHRGDSLIRCRVSIIP”, the “soluble on expression in E. coli” value is given as “not soluble”.
In the case of “MQMIHKEGWIEVICGSMFSGKSEELIRRVRRATYGRLKVQVFKPAIDNRYSEQEVVSHNGNKVCAIPVERAMSILEQWSEDTDIVAIDEVQFFDEDVIGVVDYLADHGVRVICAGLDQDFRGEPFEPTRTLMAMAEYVTKLQAICPVCGSPASRTQRLIDGKPASYHDPIILVGAAEAYEPRCRHCHQVTNKPSKLPETASSGELEHHHHHH” it was “soluble”; in that of “MSLRKVVILTLVTLFTCVEYSQAQTTEKEMTRQEKKAAQEALDKMLFQEAKEAIDNQTFVLEADRVYFKYGTSAFVSSNTNFVGLDGDKAVVQVAFNVPFSGPNGLGGITVDGNASNYKVKTDKKGNIHVSMNVMGIGISAQVNIDIPYGSNNATVDILPNFNSSHMTLSGQILPLKKANVFKGRSLEGHHHHHH”, “soluble”; in that of “MVENIPLAEEEHNKWHQDAVSLHLEFGIPRTAAEDIVQQCDVCQENKMPSTLRGSNKRGIDHWQVDYTHYEDKIILVWVETNSGLIYAERVKGETGQEFRVQTMKWYAMFAPKSLQSDNGPAFVAESTQLLMKYLGIEHTTGIPWNPQSQALVERTHQTLKNTLEKLIPMFNAFESALAGTLITLNIKRKGGLGTSPMDIFIFNKEQQRIQQQSKSKQE”, “soluble”.
In the case of “GMSNEHQLLVGLLKKLKDDALILPTLPEVAMRVQEVVGRPDSSLKQVAEIIGQDAAISARIIKVANSALYSRGVPAENINSAVTRIGLTQIKSIATSVAMEQLFISTNEMVWEVMDEVWRTSIDVTAAACSLLQIYNKKHPGSGLNYDTLTLAGLVHNIGALPVLTEAEAHPEMFTTIEHLRSLVRKMQGPIGRAVLKSWDFAPEVMEVVERWADLPYLGDHVSYLDFIRAAAFYTGELRAGNELEQRLDVFVKRGLPVSPEDLGSDAFLDSYHSIKASYE”, the “soluble on expression in E. coli” value is given as “soluble”.
In the case of “MSLINLKHSFGISRSSHDFYDIVYFYIVDGEIIGRGEAAPSKRYNETTEKIISVLNKGILVPENFEDADQLWEYIKPQLEGISALEAAANMAIWDWRGQKENKAVHDILGFNVSKLPATSYTISIGDMSELDEKIELSNPYSIIKVKLGTPNDDKEIISQIRQRTDKLIRVDANEGWSLDNAKEMSYWLADRNVEFIEQPFKAKMLNETRSLREFSPLPLFADENSLVSSDIPNIVDCFDGINIKLMKCGGLDEALKMIEIAKHFDMQIMLEGHHHHHH” it was “not soluble”; in that of “MTTYAALLRGINVGGNKKVPMAELRTLLQGLGYGGVATYLQSGNAVFTSDHGDEQSLAAEVGQAIEKRFGFTVDVLVRDHAYLKAVREACPFPAAELEAKQLHVTYFSGPVDAERFASLDQPAFLPEEFRLGDRALYLYAPDGLGRSKLGETLARPRLLKGIVATSRNWNTVVKLEELTGA”, “not soluble”.
Turning to “MGSDKIHHHHHHMYNYPFENFDFIDFWDDDEYAMNEYIGAPPTEEMIEETERELGYKLPESYIWLMKQHNGGIPFNVCFPCDEPTSWADDHVAITGIMGVDKDKIYSLCGQLGSRFMIEEWGYPDIGVAICDCPSVGHDMIFLDYRECGPQGEPKVVHVDQEDDYYVTFLADNFEEFIRGLVNEEVFDTSEEDERMELEKVRNAAFSPLLSDLCAKCDHPVDTERWIRKISEEIVTDKGFFALHADERSYLLYDIQLWLYTNVYPDTTEEDYLSAYKKIIALDGEFSTGGYASDFVTDWLTRRKESGMVTCNDGILSMAAGTKEALLANRELISNKEQ”, the “soluble on expression in E. coli” value is reported as “not soluble”.
Next, “MAKEWGYASHNGPDHWHELFPNAKGENQSPIELHTKDIRHDPSLQPWSVSYDGGSAKTILNNGKTCRVVFDDTYDRSMLRGGPLPGPYRLRQFHLHWGSSDDHGSEHTVDGVKYAAELHLVHWNPKYNTFKEALKQRDGIAVIGIFLKIGHENGEFQIFLDALDKIKTKGKEAPFTKFDPSSLFPASRDYWTYQGSFTTPPCEECIVWLLLKEPMTVSSDQMAKLRSLLSSAENEPPVPLVSNWRPPQPINNRVVRASFKHHHHHH”: “soluble”.
In the case of “MITMKHVILVGDGMADYPLDELDGKTPLQVADKPNMDQLAGMGACGLLRTVPEGMEAGSDVANLSIMGYDPRRYYTGRGPLEAASIGVELGDDDVAFRCNLINADERIVDFNAGHIETAEASSLIDALNHELETRGRFYAGVSYRNLFVIEGRGYTSVRVEPPHDIVGESVAAHLPSGSEEADHIRELMLESAGVLRSHEVNLKRESMGKRPATMIWLWGQGLRPSMEPFSERYGIRGATITAVDLIKGLGVYAGLENIHVPGATGYLDTDYRAKGRYAAGALEEYDFLYVHVEAPDEAGHAGDAEEKIRAIENIDRFVLGRLLDALSDHEHRIAVLPDHPTPIEIRTHVPDPVPCILAGDGVDADQVKSYDEFTVREGSLGTWEAHRLMEIMMDPAARLRQLEHHHHHH”, the “soluble on expression in E. coli” value is recorded as “not soluble”.
As for “MGSSHHHHHHSSGLVPRGSHMQIHTLTIRHGRSDPETVRSLLGQDQVLVVDYDAIHHHVINTAEYTYLSHMFDIIVLNLSGKLNDIIDTIMAGAAMVVIDPSVQEKRLREFFDITENIAMPYRGDGHSEAFSQLGGQYFVTDREIGYPFKLAYSTTDISGDRYIRVLDFPQDISDMIFERA”, the “soluble on expression in E. coli” value is given as “soluble”.
Regarding “MSLKNTGYILALCLTASGHVLAHDVWITGKQAENNVTAEIGYGHNFPSKGTIPDRRDFFENPRLYNGKETITLKPASTDYVYKTESASKDNGYVLSTYMKPGYWSRTSSGWKPVSREGRNDVAYCEFVTKYAKSFIPGEQQMPAQLYQSPTGHELEIIPLSDISRFSENVKLKVLYKTSPLAGAIMELDSVSYLTSSRHTHAVEHKHPVHKAELTFVTNEDGIVTVPSLHIGQWLAKVQNKKSFQDKSLCDETVDVATLSFSRNEGHHHHHH”, the “soluble on expression in E. coli” value is “soluble”.
“MTKQREKLIEVKNVKQHFDVSGGVVKAVNDISFDIYRGETFGLVGESGCGKSTTGRTIIRLYDATAGEVLFDGENVHGKKSRAELKKFNRKMQMIFQDPYASLNPRMTVGDIIAEGIDIHGLAKNKKERMDRVHELLNTVGLNKEHANRFPHEFSGGQRQRIGIARALAVEPEFIIADEPISALDVSIQAQVVNLLKKLQKEKGLTYLFIAHDLSMVKYISDRIGVMYRGQIVELTTSDELYANPIHPYTKSLLSAIPLPDPDYERNRKRIVYDPSQHNYGSEEPTMREIRPGHFVLCSEAEYKKYKEIYQ”: the “soluble on expression in E. coli” value is given as “not soluble”.
As for “MKLILNTPGLYLCKRGECFQIQSENEKREIAATKVDQIMITTHAALTTDAIELALEYNIDIIFLKNTGQPMGRVWHSKLGSISTIRRKQLFLQDSPLGLQLVKEWILEKMDNQIRLLKKLEVNRRDDEKRAIIRDTIEKIEKQKANIMSINNKETVNNVRNMLLGYEGTAGRVYFETLGKLIPEKYAFEARSRNPAKDPFNCMLNYSYGILYSSVEKACIIAGLDPYIGIMHTDNYNKKALVYDMVEMYRGYMDEIVFRLFSTKKVQDDFFDKIEDGYYLNKEGKQLLISEYNKELEVKMNYRGRRIEFANIIQYDCHQIANRILKEDIPC”, the “soluble on expression in E. coli” value is reported as “soluble”.
In the case of “MSFQEIPIIDLQEAFDPATRSKFLEEVRDAIINVGFLLLKNYESLGPTEEDLQSIKQQAIEFFALPAKEKLQCEMLNSPHFLGYTRLANEITASHTDWREQIDLATELPAPKEGEPLYKNIEGPNLWPNPEVIPKFRPTIERFIEKMTALSNVFKDLVAESIGVDPKALNRYFKENQQCKMKLIAYPDVSELDGTKSAALDDTPETNQGVEPHRDSDLITYIYQATEHQNSLQVQNFQGHWITVPNIPGHLVVNNGQTLQAITGGVAKATIHRVLVPEKGTGTRISIPFFQTIDLDSSKGVVDNLPQEVIDLKNERDKKIKDWGVDTGFQFEPDVSKEPIGHAVFRNRIKSHQDVAKKWYPDVLKSVLQEYTH” it was “soluble”.
In the case of “MQVLWSNPIELGMTGGDVRMVKGPSDALRCLADHWPYRGPYYVAARSACRAAIDGRRTCEEARRLFLSAAEEARLKAH” it was “not soluble”.
Turning to “MGSDKIHHHHHHMSGAKVISVMNWKGGVGKTTMTHHLGTGLHMLTKEERLEYLGSEKMPRILFVDNDAQCNLSISCLHVEKYEDLVYKQNIPTIYDLYKLFICNESPVVDMHNYIIKNQVRMDNRRIFMGMDLLPAHQELVYLDMNIAMNSRASFQSGLISKEIYKYQYLNDILEPVCSDYDYIFIDCPPNLGYTTLNALYASEYCLIPTGLDHLSSYGIASLLKEIDRLNTEFATAVPDHPMIEVVGIVANNVEENREAPKRSQKLIRERLQDSYHELMFEPYLTRGDGIPNASEQGYPVYADRSANALKQGDLLLGILREFLDRI”, the “soluble on expression in E. coli” value is recorded as “not soluble”.
